Experiments:
[1] = biological target: SARS-CoV-2 Nsp15 H235A (SARS-CoV-2); assay: SEC
[2] = biological target: SARS-CoV-2 Nsp15 H235A (SARS-CoV-2); assay: cryo-EM structure
[3] = biological target: SARS-CoV-2 Nsp15 H250A (SARS-CoV-2); assay: SEC

Row | Substance | stoichiometry N [1] | stoichiometry N [2] | stoichiometry N [3]
1 | SARS-CoV-2 Nsp15 H235A (enzyme) | 6 | 6 | –
2 | SARS-CoV-2 Nsp15 H250A (enzyme) | – | – | 6

Reference: paper PMC7840905
